For the assay, the target named is EphA3 antigen (UniProt P29320). Put plainly: ELISA. (ELISA stands for enzyme-linked immunosorbent assay.)
Sequence of UniProt P29320 (P29320 21-541 limits assumed): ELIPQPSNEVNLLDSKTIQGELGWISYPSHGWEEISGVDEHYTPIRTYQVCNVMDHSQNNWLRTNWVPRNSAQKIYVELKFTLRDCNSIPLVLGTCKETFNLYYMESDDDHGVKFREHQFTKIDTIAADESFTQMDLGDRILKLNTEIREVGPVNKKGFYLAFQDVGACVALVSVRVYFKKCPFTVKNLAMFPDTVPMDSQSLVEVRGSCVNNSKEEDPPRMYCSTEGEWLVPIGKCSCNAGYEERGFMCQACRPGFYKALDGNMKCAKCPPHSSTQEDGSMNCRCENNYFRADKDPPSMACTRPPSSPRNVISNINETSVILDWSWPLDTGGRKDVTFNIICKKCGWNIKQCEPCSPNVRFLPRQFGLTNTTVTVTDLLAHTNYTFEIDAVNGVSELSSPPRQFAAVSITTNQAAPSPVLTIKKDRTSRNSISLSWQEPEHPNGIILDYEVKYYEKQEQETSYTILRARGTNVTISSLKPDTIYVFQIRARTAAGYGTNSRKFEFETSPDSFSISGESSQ

Substance monoclonal antibody IIIA4 gave an AFFINITY of 2.5 nM.

For the origin of these results see patent US20110243934A1.
